The results in this text go back to patent US20240269235A1 (Gilead, published 2024).

A word on the Kd: it is a measure of binding affinity in units of concentration.

Assay [1] has as its target T1, IL-2Rβγ heterodimer, custom biotinylated Fc fusion protein (human IL-2Rβ 27-240-Fc-FLAG / human IL-2Rγ … (human, site-specific biotinylation at the AviTag)).
T1 construct: Extracellular regions fused to IgG1 knob-in-hole Fc subunits with tags; also called IL-2 receptor βγ heterodimer; Fc-IL-2Rβγ
Put plainly: SPR (Biacore), CM4 chip, biotinylated receptor on neutravidin. The procedure:
Fc-IL-2 variant binding data was collected on a Biacore platform using a CM4 chip. Neutravidin was immobilized using standard amine coupling methods and used to capture biotinylated receptors. The source, preparation and immobilization of biotinylated IL-2Rα and IL-2Rβγ heterodimer was as described in Example 4. Proleukin was used as a comparator. Fc-IL-2 variants and Proleukin were injected at various concentrations over these surfaces. Kinetic data obtained from these injections was used to extract kₒₙ and koff to calculate KD (KD=Koff/kₒₙ).
Background: In SPR one partner is held on a chip, and binding of the other changes the refractive index at the surface.

Assay [2] has as its target T2, trimeric murine IL-2 receptor (IL-2Rα, IL-2Rβ, and IL-2Rγ) on CTLL-2 cells (murine, UniProt P01590 22-268; P16297 27-539; P34902 23-369).
T2 sequence (looked up) 1: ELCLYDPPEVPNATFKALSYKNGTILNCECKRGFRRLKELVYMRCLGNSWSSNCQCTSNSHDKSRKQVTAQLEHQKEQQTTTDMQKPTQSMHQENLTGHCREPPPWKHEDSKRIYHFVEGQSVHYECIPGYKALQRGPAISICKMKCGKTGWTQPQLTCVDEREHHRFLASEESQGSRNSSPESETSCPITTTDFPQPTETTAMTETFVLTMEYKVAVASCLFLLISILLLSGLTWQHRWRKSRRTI
T2 sequence (looked up) 2: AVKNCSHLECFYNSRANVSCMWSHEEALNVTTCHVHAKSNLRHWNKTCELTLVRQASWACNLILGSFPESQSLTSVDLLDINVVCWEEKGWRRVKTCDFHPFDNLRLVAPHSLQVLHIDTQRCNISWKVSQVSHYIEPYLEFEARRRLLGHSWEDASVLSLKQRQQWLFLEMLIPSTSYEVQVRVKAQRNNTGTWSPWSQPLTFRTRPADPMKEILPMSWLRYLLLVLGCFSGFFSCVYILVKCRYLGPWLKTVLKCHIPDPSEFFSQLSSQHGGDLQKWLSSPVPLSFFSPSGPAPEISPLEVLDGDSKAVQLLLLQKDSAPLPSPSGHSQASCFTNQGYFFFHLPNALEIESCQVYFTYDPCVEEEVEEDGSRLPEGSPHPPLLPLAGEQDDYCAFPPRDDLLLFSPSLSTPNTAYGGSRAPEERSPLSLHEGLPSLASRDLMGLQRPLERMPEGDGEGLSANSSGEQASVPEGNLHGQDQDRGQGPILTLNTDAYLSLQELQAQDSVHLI
T2 sequence (looked up) 3: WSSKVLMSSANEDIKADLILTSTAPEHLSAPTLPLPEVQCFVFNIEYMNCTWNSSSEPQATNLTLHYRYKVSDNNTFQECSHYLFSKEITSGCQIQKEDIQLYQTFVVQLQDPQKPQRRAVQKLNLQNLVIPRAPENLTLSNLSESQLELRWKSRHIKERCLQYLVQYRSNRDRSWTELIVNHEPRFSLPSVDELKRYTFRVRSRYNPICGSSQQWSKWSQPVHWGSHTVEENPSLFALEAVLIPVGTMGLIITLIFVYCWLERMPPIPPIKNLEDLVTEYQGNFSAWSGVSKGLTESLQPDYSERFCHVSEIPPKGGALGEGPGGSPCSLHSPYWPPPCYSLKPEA
Description: cell-based or functional assay.

T1 sequence (chain, as listed by the source limits assumed): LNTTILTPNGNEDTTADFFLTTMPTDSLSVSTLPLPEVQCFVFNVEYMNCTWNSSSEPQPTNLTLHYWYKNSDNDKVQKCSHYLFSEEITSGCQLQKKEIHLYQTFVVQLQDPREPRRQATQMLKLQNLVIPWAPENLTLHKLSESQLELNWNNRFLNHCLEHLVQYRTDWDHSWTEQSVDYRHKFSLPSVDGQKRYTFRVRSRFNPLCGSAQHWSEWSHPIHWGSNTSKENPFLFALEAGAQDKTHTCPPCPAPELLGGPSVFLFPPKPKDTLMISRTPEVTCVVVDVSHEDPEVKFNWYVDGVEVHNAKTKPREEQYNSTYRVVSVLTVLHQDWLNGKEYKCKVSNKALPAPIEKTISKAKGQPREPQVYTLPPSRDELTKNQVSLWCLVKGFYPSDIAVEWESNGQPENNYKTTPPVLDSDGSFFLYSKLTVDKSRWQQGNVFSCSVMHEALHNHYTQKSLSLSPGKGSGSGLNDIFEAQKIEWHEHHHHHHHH

B1: Fc-IL-2v heterodimer 97.46 (hIL-2v_Δ1-5_Y45G_E62A_C125S) (Fc fusion)
chain 1: ESKYGPPCPPCPAPEAAGGPSVFLFPPKPKDTLMISRTPEVTCVVVDVSQEDPEVQFNWYVDGVEVHNAKTKPREEQFNSTYRVVSVLTVLHQDWLNGKEYKCKVSNKGLPSSIEKTISKAKGQPREPQVYTLPPSQEEMTKNQVSLWCLVKGFYPSDIAVEWESNGQPENNYKTTPPVLDSDGSFFLYSRLTVDKSRWQEGNVFSCSVMHEALHNHYTQKSLSLSLGGGGGSGGGGSGGGGSGGGGSSTKKTQLQLEHLLLDLQMILNGINNYKNPKLTRMLTFKFGMPKKATELKHLQCLEEALKPLEEVLNLAQSKNFHLRPRDLISNINVIVLELKGSETTFMCEYADETATIVEFLNRWITFSQSIISTLT
chain 2: ESKYGPPCPPCPAPEAAGGPSVFLFPPKPKDTLMISRTPEVTCVVVDVSQEDPEVQFNWYVDGVEVHNAKTKPREEQFNSTYRVVSVLTVLHQDWLNGKEYKCKVSNKGLPSSIEKTISKAKGQPREPQVYTLPPSQEEMTKNQVSLSCAVKGFYPSDIAVEWESNGQPENNYKTTPPVLDSDGSFFLVSRLTVDKSRWQEGNVFSCSVMHEALHNRFTQKSLSLSLGK
notes: hIgG4 knob-in-hole Fc heterodimer, one IL-2v on the knob chain
The molecule B1 gave a dissociation constant (Kd) in assay [1] of 0.065 nM. Moreover, the “STAT5 activation of CTLL-2 cells, EC50” value in assay [2] is 3.4 nM.

B2: Fc-IL-2v heterodimer 102.46 (hIL-2v_Δ1-5_Y45G_E61A_E62A_C125S) (Fc fusion)
chain 1: ESKYGPPCPPCPAPEAAGGPSVFLFPPKPKDTLMISRTPEVTCVVVDVSQEDPEVQFNWYVDGVEVHNAKTKPREEQFNSTYRVVSVLTVLHQDWLNGKEYKCKVSNKGLPSSIEKTISKAKGQPREPQVYTLPPSQEEMTKNQVSLWCLVKGFYPSDIAVEWESNGQPENNYKTTPPVLDSDGSFFLYSRLTVDKSRWQEGNVFSCSVMHEALHNHYTQKSLSLSLGGGGGSGGGGSGGGGSGGGGSSTKKTQLQLEHLLLDLQMILNGINNYKNPKLTRMLTFKFGMPKKATELKHLQCLEAALKPLEEVLNLAQSKNFHLRPRDLISNINVIVLELKGSETTFMCEYADETATIVEFLNRWITFSQSIISTLT
chain 2: ESKYGPPCPPCPAPEAAGGPSVFLFPPKPKDTLMISRTPEVTCVVVDVSQEDPEVQFNWYVDGVEVHNAKTKPREEQFNSTYRVVSVLTVLHQDWLNGKEYKCKVSNKGLPSSIEKTISKAKGQPREPQVYTLPPSQEEMTKNQVSLSCAVKGFYPSDIAVEWESNGQPENNYKTTPPVLDSDGSFFLVSRLTVDKSRWQEGNVFSCSVMHEALHNRFTQKSLSLSLGK
notes: as for B1
Molecule B2 yielded a Kd in assay [1] of 0.073 nM. For the same molecule, the “STAT5 activation of CTLL-2 cells, EC50” value in assay [2] amounted to 6.1 nM.

B3: Fc-IL-2v heterodimer 104.46 (hIL-2v_Δ1-5_R38G_F42A_C125S) (Fc fusion)
chain 1: ESKYGPPCPPCPAPEAAGGPSVFLFPPKPKDTLMISRTPEVTCVVVDVSQEDPEVQFNWYVDGVEVHNAKTKPREEQFNSTYRVVSVLTVLHQDWLNGKEYKCKVSNKGLPSSIEKTISKAKGQPREPQVYTLPPSQEEMTKNQVSLWCLVKGFYPSDIAVEWESNGQPENNYKTTPPVLDSDGSFFLYSRLTVDKSRWQEGNVFSCSVMHEALHNHYTQKSLSLSLGGGGGSGGGGSGGGGSGGGGSSTKKTQLQLEHLLLDLQMILNGINNYKNPKLTGMLTAKFYMPKKATELKHLQCLEEELKPLEEVLNLAQSKNFHLRPRDLISNINVIVLELKGSETTFMCEYADETATIVEFLNRWITFSQSIISTLT
chain 2: ESKYGPPCPPCPAPEAAGGPSVFLFPPKPKDTLMISRTPEVTCVVVDVSQEDPEVQFNWYVDGVEVHNAKTKPREEQFNSTYRVVSVLTVLHQDWLNGKEYKCKVSNKGLPSSIEKTISKAKGQPREPQVYTLPPSQEEMTKNQVSLSCAVKGFYPSDIAVEWESNGQPENNYKTTPPVLDSDGSFFLVSRLTVDKSRWQEGNVFSCSVMHEALHNRFTQKSLSLSLGK
notes: as for B1
The molecule B3 yielded a Kd in assay [1] of 0.061 nM. In addition, the “STAT5 activation of CTLL-2 cells, EC50” value in assay [2] was 1.4 nM.

B4: Fc-IL-2v heterodimer 106.46 (hIL-2v_Δ1-5_R38G_F42A_Y45G_C125S) (Fc fusion)
chain 1: ESKYGPPCPPCPAPEAAGGPSVFLFPPKPKDTLMISRTPEVTCVVVDVSQEDPEVQFNWYVDGVEVHNAKTKPREEQFNSTYRVVSVLTVLHQDWLNGKEYKCKVSNKGLPSSIEKTISKAKGQPREPQVYTLPPSQEEMTKNQVSLWCLVKGFYPSDIAVEWESNGQPENNYKTTPPVLDSDGSFFLYSRLTVDKSRWQEGNVFSCSVMHEALHNHYTQKSLSLSLGGGGGSGGGGSGGGGSGGGGSSTKKTQLQLEHLLLDLQMILNGINNYKNPKLTGMLTAKFGMPKKATELKHLQCLEEELKPLEEVLNLAQSKNFHLRPRDLISNINVIVLELKGSETTFMCEYADETATIVEFLNRWITFSQSIISTLT
chain 2: ESKYGPPCPPCPAPEAAGGPSVFLFPPKPKDTLMISRTPEVTCVVVDVSQEDPEVQFNWYVDGVEVHNAKTKPREEQFNSTYRVVSVLTVLHQDWLNGKEYKCKVSNKGLPSSIEKTISKAKGQPREPQVYTLPPSQEEMTKNQVSLSCAVKGFYPSDIAVEWESNGQPENNYKTTPPVLDSDGSFFLVSRLTVDKSRWQEGNVFSCSVMHEALHNRFTQKSLSLSLGK
notes: as for B1
For B4, the equilibrium dissociation constant (Kd) in assay [1] was 0.06 nM. Further, the “STAT5 activation of CTLL-2 cells, EC50” value in assay [2] amounted to 19.6 nM.

B5: Fc-IL-2v heterodimer 103.46 (hIL-2v_Δ1-5_E61A_E62A_C125S) (Fc fusion)
chain 1: ESKYGPPCPPCPAPEAAGGPSVFLFPPKPKDTLMISRTPEVTCVVVDVSQEDPEVQFNWYVDGVEVHNAKTKPREEQFNSTYRVVSVLTVLHQDWLNGKEYKCKVSNKGLPSSIEKTISKAKGQPREPQVYTLPPSQEEMTKNQVSLWCLVKGFYPSDIAVEWESNGQPENNYKTTPPVLDSDGSFFLYSRLTVDKSRWQEGNVFSCSVMHEALHNHYTQKSLSLSLGGGGGSGGGGSGGGGSGGGGSSTKKTQLQLEHLLLDLQMILNGINNYKNPKLTRMLTFKFYMPKKATELKHLQCLEAALKPLEEVLNLAQSKNFHLRPRDLISNINVIVLELKGSETTFMCEYADETATIVEFLNRWITFSQSIISTLT
chain 2: ESKYGPPCPPCPAPEAAGGPSVFLFPPKPKDTLMISRTPEVTCVVVDVSQEDPEVQFNWYVDGVEVHNAKTKPREEQFNSTYRVVSVLTVLHQDWLNGKEYKCKVSNKGLPSSIEKTISKAKGQPREPQVYTLPPSQEEMTKNQVSLSCAVKGFYPSDIAVEWESNGQPENNYKTTPPVLDSDGSFFLVSRLTVDKSRWQEGNVFSCSVMHEALHNRFTQKSLSLSLGK
notes: as for B1
Take B5: the equilibrium dissociation constant (Kd) in assay [1] amounted to 0.096 nM. In addition, the “STAT5 activation of CTLL-2 cells, EC50” value in assay [2] turned out to be 2.7 nM.

B6: Fc-IL-2v heterodimer 100.46 (hIL-2v_Δ1-5_F42A_E61A_C125S) (Fc fusion)
chain 1: ESKYGPPCPPCPAPEAAGGPSVFLFPPKPKDTLMISRTPEVTCVVVDVSQEDPEVQFNWYVDGVEVHNAKTKPREEQFNSTYRVVSVLTVLHQDWLNGKEYKCKVSNKGLPSSIEKTISKAKGQPREPQVYTLPPSQEEMTKNQVSLWCLVKGFYPSDIAVEWESNGQPENNYKTTPPVLDSDGSFFLYSRLTVDKSRWQEGNVFSCSVMHEALHNHYTQKSLSLSLGGGGGSGGGGSGGGGSGGGGSSTKKTQLQLEHLLLDLQMILNGINNYKNPKLTRMLTAKFYMPKKATELKHLQCLEAELKPLEEVLNLAQSKNFHLRPRDLISNINVIVLELKGSETTFMCEYADETATIVEFLNRWITFSQSIISTLT
chain 2: ESKYGPPCPPCPAPEAAGGPSVFLFPPKPKDTLMISRTPEVTCVVVDVSQEDPEVQFNWYVDGVEVHNAKTKPREEQFNSTYRVVSVLTVLHQDWLNGKEYKCKVSNKGLPSSIEKTISKAKGQPREPQVYTLPPSQEEMTKNQVSLSCAVKGFYPSDIAVEWESNGQPENNYKTTPPVLDSDGSFFLVSRLTVDKSRWQEGNVFSCSVMHEALHNRFTQKSLSLSLGK
notes: as for B1
In assay [1], B6 came in with a Kd of 0.061 nM. Further, the “STAT5 activation of CTLL-2 cells, EC50” value in assay [2] came out at 1.6 nM.

B7: Fc-IL-2v heterodimer 101.46 (hIL-2v_Δ1-5_F42A_Y45G_C125S) (Fc fusion)
chain 1: ESKYGPPCPPCPAPEAAGGPSVFLFPPKPKDTLMISRTPEVTCVVVDVSQEDPEVQFNWYVDGVEVHNAKTKPREEQFNSTYRVVSVLTVLHQDWLNGKEYKCKVSNKGLPSSIEKTISKAKGQPREPQVYTLPPSQEEMTKNQVSLWCLVKGFYPSDIAVEWESNGQPENNYKTTPPVLDSDGSFFLYSRLTVDKSRWQEGNVFSCSVMHEALHNHYTQKSLSLSLGGGGGSGGGGSGGGGSGGGGSSTKKTQLQLEHLLLDLQMILNGINNYKNPKLTRMLTAKFGMPKKATELKHLQCLEEELKPLEEVLNLAQSKNFHLRPRDLISNINVIVLELKGSETTFMCEYADETATIVEFLNRWITFSQSIISTLT
chain 2: ESKYGPPCPPCPAPEAAGGPSVFLFPPKPKDTLMISRTPEVTCVVVDVSQEDPEVQFNWYVDGVEVHNAKTKPREEQFNSTYRVVSVLTVLHQDWLNGKEYKCKVSNKGLPSSIEKTISKAKGQPREPQVYTLPPSQEEMTKNQVSLSCAVKGFYPSDIAVEWESNGQPENNYKTTPPVLDSDGSFFLVSRLTVDKSRWQEGNVFSCSVMHEALHNRFTQKSLSLSLGK
notes: as for B1
On to B7, for which, in assay [1], the Kd is 0.054 nM. The “STAT5 activation of CTLL-2 cells, EC50” value in assay [2] stood at 7.7 nM.
